According to paper PMC4506739:

Biological target: importin α ΔIBB (NLS-recognition domain of importin α)
Assay: ITC

fold higher affinity than TPX2 NLS	stoichiometry N	Substance
9 fold	1	GM130 N74 S25D-GST (Cdk1 phospho-mimicking mutant) (from UniProt Q62839 1-74) (domain or fragment)
	1	GST-TPX2 NLS wildtype (mouse TPX2 residues 302-322) (from UniProt A2APB8 302-322) (peptide)
